According to patent publication US20090317382A1 (Genmab, published 2009):

Key:
[1] = target: T1, human AChR from membrane extracts of TE671 cells (human, UniProt P02708 21-457; P11230 24-501; P07510 23-517; Q07001 22-517)
[2] = target: T1, human AChR from membrane extracts of …; remark: listed apart in the source
[3] = target: T1, human AChR from membrane extracts of …; remark: listed apart in the source
[4] = target: T2, AChR of rhesus monkeys (rhesus monkey (Macaca mulatta)); assay: immunohistochemistry of endplates in human and monkey biopsies, qualitative comparison of staining intensities
T2 construct: In muscle tissue (sections of biopsies, or in the living animal); also called macaque AChR; monkey receptor

[5] = target: T3, human C1q (human, UniProt P02745 23-245; P02746 28-253; P02747 29-245); assay: ELISA: IgG coated at varied concentration (the concentration is that of the coating), C1q binding read as OD405, 3% human serum
T3 construct: The method names purified human C1q at 2 µg/ml; also called C1q (Quidel, A400); first component of the classical complement system
Protocol: (§1) Subsequently, plates were emptied. For the C3 and C4 ELISAs the wells were washed 3 times with 200 μl PBST (PBS supplemented with 0.05% (v/v) tween-20). Subsequently, for C1q ELISA, wells were incubated with 2 μg/mi human C1q (Quidel, San Diego, Calif., USA, A400) in C1q buffer (100 μl/well, 37° C., 1 h). […] After washing the plates (3×) with PBST for the C3 and C4 ELISA and C1q buffer for the C1q ELISA, for the C1q ELISA wells were incubated with rabbit anti-human C1q (DAKO, Glostrup, Denmark, A0136), diluted in C1q buffer (1:1000, 100 μl/well, room temperature, 1 h). […] After washing the plates (3×) with PBST for the C3 and C4 ELISA and C1q buffer for the C1q ELISA, for the C1q ELISA wells were incubated with HRP-conjugated swine anti-rabbit IgG-Fc (DAKO, P0399) diluted in ELISA buffer (1:2500, 100 μl/well, room temperature, 1 h). […] Absorbance was measured at 405 nm in an ELISA plate reader (Biotek Instruments Inc., Winooski, USA). To analyze, if complement activation by human IgG isotypes depends on the source of the complement, both human and rhesus serum were tested.

[6] = target: T4, C1q (3% rhesus serum) (Macaca mulatta); assay: ELISA: IgG coated at varied concentration (the concentration is that of the coating), C1q binding read as OD405, 3% rhesus serum
T4 construct: native protein in 3% serum; also called rhesus C1q; C1q of rhesus monkey serum
Protocol: as §1

[7] = target: T3, human C1q; assay: ELISA: IgG coated at varied concentration, C1q binding read as OD405; sheet heading '3% human serum'

T3 sequence (P02745 23-245 limits assumed, chain 1 of 3): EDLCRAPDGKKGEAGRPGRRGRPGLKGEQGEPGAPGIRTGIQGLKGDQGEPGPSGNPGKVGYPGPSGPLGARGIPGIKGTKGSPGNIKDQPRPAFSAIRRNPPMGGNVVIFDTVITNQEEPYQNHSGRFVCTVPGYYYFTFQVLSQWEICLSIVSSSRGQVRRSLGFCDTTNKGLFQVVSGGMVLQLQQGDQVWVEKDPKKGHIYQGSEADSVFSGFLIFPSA
T3 sequence (P02746 28-253 limits assumed, chain 2 of 3): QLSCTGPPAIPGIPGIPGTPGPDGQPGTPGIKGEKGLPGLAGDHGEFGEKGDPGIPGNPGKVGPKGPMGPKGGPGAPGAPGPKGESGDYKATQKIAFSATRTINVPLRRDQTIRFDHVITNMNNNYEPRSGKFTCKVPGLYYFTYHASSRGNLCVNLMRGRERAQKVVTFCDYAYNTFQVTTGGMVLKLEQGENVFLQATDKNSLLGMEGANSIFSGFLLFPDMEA
T3 sequence (P02747 29-245 limits assumed, chain 3 of 3): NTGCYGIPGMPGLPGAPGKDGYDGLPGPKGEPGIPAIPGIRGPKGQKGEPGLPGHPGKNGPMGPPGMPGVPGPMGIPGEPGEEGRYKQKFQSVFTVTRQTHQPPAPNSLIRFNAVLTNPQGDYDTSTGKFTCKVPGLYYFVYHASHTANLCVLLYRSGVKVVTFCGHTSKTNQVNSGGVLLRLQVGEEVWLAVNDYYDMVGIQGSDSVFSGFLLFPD

B1: IgG1-637 (antibody)
heavy: not shown
VL: EIELTQPHSVSESPGKTVTISCTRSSGSIASNYVQWYQQRPGSSPTTVIYEDNQRPSGVPDRFSGSIDSSSNSASLTISGLKTEDEADYYCQSYDSNSGGRVFGGGTKLTVL
[1]
  Kd: ~1.7 nM
  precipitation of the flag tagged antibody, percent remaining at two fold excess: ~50%
[2]
  EC50 (read off the curve): ~3 nM
[3]
  IC50 (read off the curve): ~10 nM
[4]
  fold reduced affinity compared to human receptor: ~10 fold
[5]
  EC50 (read off the curve): ~2 µg/mL
[6]
  EC50 (read off the curve): ~2 µg/mL

B2: IgG4-637 (antibody)
heavy: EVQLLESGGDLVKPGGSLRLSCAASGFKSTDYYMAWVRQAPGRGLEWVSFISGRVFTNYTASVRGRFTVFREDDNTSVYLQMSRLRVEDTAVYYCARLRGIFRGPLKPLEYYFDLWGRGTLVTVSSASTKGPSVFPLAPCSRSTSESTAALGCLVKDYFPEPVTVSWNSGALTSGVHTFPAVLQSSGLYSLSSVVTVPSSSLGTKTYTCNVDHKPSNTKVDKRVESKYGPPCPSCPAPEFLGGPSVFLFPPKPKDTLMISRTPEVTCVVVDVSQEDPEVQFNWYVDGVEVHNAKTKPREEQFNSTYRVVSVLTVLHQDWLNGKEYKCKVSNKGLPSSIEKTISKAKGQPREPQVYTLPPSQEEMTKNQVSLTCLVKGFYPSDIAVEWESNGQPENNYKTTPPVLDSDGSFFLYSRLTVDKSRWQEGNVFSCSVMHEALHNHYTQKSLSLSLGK
light: EIELTQPHSVSESPGKTVTISCTRSSGSIASNYVQWYQQRPGSSPTTVIYEDNQRPSGVPDRFSGSIDSSSNSASLTISGLKTEDEADYYCQSYDSNSGGRVFGGGTKLTVLGQPKAAPSVTLFPPSSEELQANKATLVCLISDFYPGAVTVAWKADSSPVKAGVETTTPSKQSNNKYAASSYLSLTPEQWKSHRSYSCQVTHEGSTVEKTVAPTECS
notes: also called anti-MG
[1]
  Kd: ~1.7 nM
  precipitation of the flag tagged antibody, percent remaining at two fold excess: ~50%
[2]
  EC50 (read off the curve): ~3 nM
[3]
  IC50 (read off the curve): ~10 nM
[7]
  binding result: no binding
